Biological target: T1, recombinant human RNF43 extracellular domain (human, UniProt Q68DV7 24-197)
T1 construct: extracellular domain; also called huRNF43; human RNF43 ECD
T1 sequence (looked up): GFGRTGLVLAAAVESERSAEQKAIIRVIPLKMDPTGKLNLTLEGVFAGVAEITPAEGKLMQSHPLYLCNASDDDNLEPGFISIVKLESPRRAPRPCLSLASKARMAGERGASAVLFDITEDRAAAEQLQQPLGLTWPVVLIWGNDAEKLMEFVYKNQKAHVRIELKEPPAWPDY
Test: SPR Biacore 8K; antibody captured on Protein A; RNF43 ECD analyte; 25 C
Method: Antibodies were screened for binding to recombinant human RNF43 and ZNRF3 ECDs using a Biacore® 8 k instrument (GE Life Sciences). Briefly, antibodies diluted to 1 μg/ml in 1×HBSP buffer (Cytiva, BR100368) were captured on a Sensor Chip Protein A (GE Life Sciences) using a flow rate of 10 μl/minute and a contact time of 60 seconds. Binding of recombinant human RNF43 and ZNRF3 extracellular domain to the captured antibodies was analyzed at 25° C. using a single cycle kinetics method with a flow rate of 30 μl/minute, a contact time of 180 seconds and a dissociation time of 600 seconds. The concentration of recombinant human RNF43 and ZNRF3 extracellular domain in the single cycle kinetics were 0, 0.8, 4, 20, and 100 nM. Between cycles, the chip was regenerated using 10 mM Glycine HCl pH 1.5 injected for 30 seconds at 30 μl/minute. Data were evaluated using Biacore 8K Evaluation software (GE Life Sciences). Kinetic constants were obtained using a 1:1 binding model with the parameter RI set to zero. Cell surface ligase antibodies with sub-nanomolar affinities may provide advantages in certain instances, for example, in the degradation efficiency which is correlated with the durability of the ternary complex as shown in FIG. 5D.

B1: RNF43-31 (antibody, V domains shown)
VH: AVQLVESGGGSVQPGRSMRLSCAASGFTFSNYDMTWVRQAPTKGLEWVASITYDGGSTYSRDSVKGRFTISRDNAKSTLYLQMDSLRSEDTATYYCTTDRGRYLPYYFDYWGQGVMVTVSA
VL: DVVLTQTPVSLSVTLGDQASISCRSSQSLEYSDGYSYLEWYLQKPGQSPQLLIYEVSSRFSGVPDRFIGSGSGTDFTLKISRVEPEDLGVYYCFQAIHDPTFGAGTKLELK
notes: Rat clone; VH/VL only
Kd: 0.13 nM

B2: RNF43-41 (antibody, V domains shown)
VH: EVHLVESGGGLVQPGRSVKLSCTASGFTFSYYDMAWVRQAPTKGLEWVASLTYDGSSTYYRDSVKGRFTISRDNAKSTLYLQMDSLRSEDTATYYCTTDRGRYLPYHFDYWGQGVMVTVSS
VL: DVVLTQTPVSLSVTLGDQASISCRSSQSLEYSDGYTYLEWYLQKPGQSPQLLIYEVSTRFSGVPDRFIGSGSGTDFTLKISRVEPEDLGVYYCFQATHDPTFGAGTKLELK
notes: Rat clone; VH/VL only
Kd: 0.37 nM

B3: RNF43-67 (antibody, V domains shown)
VH: AVQLVESGGGSVQPGRSMRLSCAASGFTFSNYDMTWVRQAPTKGLEWVASITSDGGSTYSRDSVKGRFTISRDNAKSTLYLQMDSLRSEDTATYYCTTDRGRYLPYYFDYWGQGVMVTVSA
VL: DVVLTQTPVSLSVTVGDQASISCRSSQSLEYSDGYSYLEWYLQKPGQSPQLLIYEVSSRFSGVPDRFIGSGSGTDFTLKISRVEPEDLGVYYCFQAIHDPTFGAGTKLELK
notes: Rat clone; VH/VL only
Kd: 0.59 nM

B4: RNF43-61 (antibody, V domains shown)
VH: EVQLVESGGDLVQPGRSLTLSCAASGFIFSDYYMAWVRQAPKKGLEWVASITYEGSSTYYGDSVKGRFTISRDNTKSTLYLLMNSLRSDDSATYYCARHGAHYTYNYAYYFDYWGQGVMVTVSS
VL: DIMLTQSPTTLSVIPGENISLSCRASQSVGTNLHWYQQKPSESPRVLINYASQSISGIPSRFSGSGSGTDFTLNINRVEPEDSSVYYCQQSKSWPFTFGSGTKLEIK
notes: Rat clone; VH/VL only
Kd: 0.43 nM

B5: RNF43-74 (antibody, V domains shown)
VH: EVQLVESGGDLVQPGRSLTLSCAASGFTFSDYYMAWVRQAPKKGLEWVASITYEGSSTYYGDSVKGRFTISRDNTKSTLYLLMNSLRSDDTATYYCARHGAHYTYNYAYYFDYWGQGVMVTVSS
VL: DIMLTQSPTTLSVIPGENISLSCRASQSVGTNLHWYQQKPSESPRVLINYASQSISGIPSRFSGSGSGTDFTLNINRVEPEDSSVYYCQQSKSWPFTFGSGTKLEIK
notes: Rat clone; VH/VL only
Kd: 0.35 nM

B6: RNF43-71 (antibody, V domains shown)
VH: QVKLLQSGAALVKPGDSVKMSCKASGYTFTDHIIHWVKQSHGKSLEWIGYINPYSGSTNYNEKFKSKATLTVDRSNNTAYMEFSRLTSEDSAIYYCARKNYGGYGVMDAWGQGASVTVSS
VL: DIQMTQSPSLLSASVGDRVTLSCKASQNIYKNLAWHQQKLGEAPKLLIYYANSLQTGIPSRFSGSGFGTDYTLTISSLQPEDVATYFCQQSSSGWTFGGGTKLELK
notes: Rat clone; VH/VL only
Kd: 0.03 nM

B7: RNF43-80 (antibody, V domains shown)
VH: EVQLVESGGGLVQPGRSLKVSCLASGFNFGDFGMNWIRQAPGKGLEWVSYISSTSGTIYYADTVKGRFTISRDNAKNTLYLQLSSLRSEDTALYYCARPAGRYFDYWGQGVLVTVSS
VL: DIVMTQSPSSLAVSAGETVTIDCKSNQSLLYSGNQKNYLAWYQQKPGQSPKLLIYWTSTRQSGVPDRFIGSGSGTEFTLTISSVQAEDLAIYYCQQYYHTPFTFGSGTKLEIK
notes: Rat clone; VH/VL only
Kd: 0.48 nM

B8: RNF43-86 (antibody, V domains shown)
VH: EVQLVESGGGLVQPGRSLKLSCAASGFTFTNYYMAWVRQAPTKGLEWVASISPSGDTTYYPDSVKGRFTVSRDNAKSTQYLQMDNLRSEDTATYYCARDAYTYYGYKGWYFDFWGPGTMVTVSS
VL: QFVLTQPNSVSTNLGSAVKLSCKRSTDDIGSNYVNWYQQHEGRSPTTMIYRDDKRPDGVPDRFSGSIDRSSNSALLTINNVQTEDEADYFCQSYSSGIYIFGGGTKLTVL
notes: Rat clone; VH/VL only
Kd: 17.3 nM

From patent publication US20240101708A1 (Genentech, published 2024)
